{
  "source": "patent US20060026702A1",
  "about": "“Phosphoinositide 3-kinase mediated inhibition of GPCRs” (DUKE UNIVERSITY, priority 2002, published 2006)",
  "key": {"[1]": {"target": "T1, βARK1 (Bos taurus, UniProt P21146)", "T1 construct": "gift from Dr. Robert Lefkowitz", "T1 sequence (P21146 1-689)": "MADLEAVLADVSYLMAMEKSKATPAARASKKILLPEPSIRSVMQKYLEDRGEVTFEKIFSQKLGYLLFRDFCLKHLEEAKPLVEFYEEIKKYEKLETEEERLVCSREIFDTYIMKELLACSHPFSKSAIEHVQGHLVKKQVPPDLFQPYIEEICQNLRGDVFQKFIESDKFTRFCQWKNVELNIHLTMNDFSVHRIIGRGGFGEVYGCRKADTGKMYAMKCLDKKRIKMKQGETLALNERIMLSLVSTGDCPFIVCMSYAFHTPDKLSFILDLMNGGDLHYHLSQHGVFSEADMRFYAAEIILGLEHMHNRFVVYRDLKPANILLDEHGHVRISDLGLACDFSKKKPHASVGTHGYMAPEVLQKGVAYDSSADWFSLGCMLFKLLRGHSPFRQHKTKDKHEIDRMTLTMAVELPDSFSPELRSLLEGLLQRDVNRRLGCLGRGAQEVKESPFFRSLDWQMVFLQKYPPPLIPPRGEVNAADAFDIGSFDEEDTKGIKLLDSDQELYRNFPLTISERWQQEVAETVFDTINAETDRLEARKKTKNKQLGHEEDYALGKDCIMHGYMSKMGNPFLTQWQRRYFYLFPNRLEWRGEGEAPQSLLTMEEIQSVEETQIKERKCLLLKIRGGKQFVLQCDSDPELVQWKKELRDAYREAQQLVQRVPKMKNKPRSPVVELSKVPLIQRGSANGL", "experiment": "Co-immunoprecipitation and GST pull-down with purified βARK1", "assay_type": "binding", "settings": "immunoprecipitated FLAG-HEAT or PI3KΔHEAT-HA", "method": "GST Fusion Protein Expression and Pull-down Experiments—Plasmid DNAs were transformed in Escherichia coli BL21 cells. Overnight cultures were grown in LB medium supplemented with ampicillin (100 μg/ml), diluted to an A600 of 0.2 in the same medium and grown for another 1 hr at 37° C. Cultured cells were then induced with 0.1 mM isopropyl-1-thio-β-D-galactopyranoside for 2 hr. Cell were then pelleted, washed once with 1× phosphate-buffered saline and resuspended in 1× phosphate-buffered saline containing 1 mM phenylmethylsulfonyl fluoride, 2 mg/ml lysozyme and incubated for 15 min on ice. Cells were lysed by adding Triton X-100 1%. Solublized cells were incubated with DNase (300 units) for 15 min on ice and centrifuged at 13,000 rpm for 10 min.\nGlutathione-Sepharose beads were added to the supernatant and gently agitated at 4° C. for 2 hr. Beads were washed three times with ice cold 1×PBS containing 1% Triton X-100 followed by three washes with cold PBS without detergent. Protein concentration was determined using a DC protein assay kit (Bio Rad), and the integrity of the fusion protein was analyzed by SDS-polyacrylamide gel electrophoresis and Coomassie staining.\nThe beads were spun and washed three times with binding buffer followed by three washes with binding buffer without detergent. The beads were resuspended in SDS gel loading buffer and resolved by gel electrophoresis, immunblotting and detection was carried out described later.\nFLAG-HEAT and PI3KΔHEAT proteins were immunoprecipitated from cell extracts using monoclonal FLAG and HA antibodies respectively, fractionated by SDS-PAGE and analyzed by immunoblotting with βARK1 monoclonal antibody. […] Levels of expression of HEAT and PI3KΔHEAT proteins were similar (FIG. 8B, lower panel).\nTo investigate whether there was a direct physical interaction between the HEAT domain of PI3K and βARK1, GST-HEAT fusion protein containing 535-732 amino acid residues of PI3Kγ was produced, which including the entire HEAT domain and flanking upstream 10 amino acids and downstream 7 amino acids. […]"}, "[2]": {"tested_on": "β-arrestin2-GFP", "experiment": "β-arrestin2-GFP recruitment to the membrane by confocal microscopy", "assay_type": "cell-based", "settings": "isoproterenol; co-expressed mutant protein", "method": "Confocal Microscopy—Confocal microscopy was performed as previously described. […] Cells were split into 35 mm^2 dishes with glass bottoms for observation using a Zeiss LSM-510 confocal microscope. […] For analyses of the HEAT domain, HEK 293 cells were transfected with the plasmids containing cDNAs encoding either the β2AR-YFP (2 μg) or β2AR-YFP (2 μg) and HEAT domain (4 μg). Cells were plated onto glass bottom dishes for observation in the confocal microscope. […] Cells were permeablized with 0.1% Triton X-100 in phosphate-buffered saline for 20 min, incubated in 1% BSA in phosphate-buffered saline for 1 hr. Cells were washed with 1× phosphate-buffered saline and incubated with anti-HA or anti-FLAG monoclonal antibody (1:250) with 1% BSA in 1× phosphate-buffered saline for 1 hr. Cells were washed and incubated with goat anti-mouse IgG conjugated with Texas Red (1:500) (Molecular Probes) for 1 hr. Samples were visualized using single sequential line excitation filters at 488 and 568 nm and emission filter sets at 505-550 nm for GFP detection and 585 for Texas Red detection.\nTo exclude these possibilities cells were co-transfected with plasmids containing FLAG β2AR, β-arrestin2-GFP and either PI3Kγ or ΔPI3Kγ cDNAs, and were monitored for the recruitment of β-arrestin2-GFP using confocal microscopy. […] Marked redistribution of β-arrestin2-GFP to the membrane occurred within 2.5 minutes. […]"}},
  "data": [
    {"molecule": "HEAT: 197 amino acid HEAT domain of PI3Kγ, FLAG epitope-tagged (SEQ ID NO: 2), overexpressed in cells (protein, listed as Homo sapiens, FLAG tag) MDYKDDDDKHPIALPKHQPTPDDRVRAEMPNQLRKQLEAIIATDTAEDKELLWHFRYESLKHPKAYPKLFSSVKWGQQEIVAKTYQLLARREVWDQSALDVGLTMQLLDCNFSDENVRAIAVQKLESLEDDDVLHYLLQLVQAVKFEPYHDSALARFLLKRGLRNKRIGHFLFWFLRSEIAQSRHYQQRFAVILEAYLRGCGTA", "values": [
      {"measurement": "association with purified βARK1 (immune complexes from HEK 293 extracts)", "setting": "[1]", "result": "found to associate"},
      {"measurement": "recruitment of β-arrestin2-GFP to the receptor/membrane after agonist", "setting": "[2]", "result": "did not affect"}
    ]}
  ]
}
